T1: Full-length human RAD51 (human, UniProt Q06609 1-339)
T1 sequence: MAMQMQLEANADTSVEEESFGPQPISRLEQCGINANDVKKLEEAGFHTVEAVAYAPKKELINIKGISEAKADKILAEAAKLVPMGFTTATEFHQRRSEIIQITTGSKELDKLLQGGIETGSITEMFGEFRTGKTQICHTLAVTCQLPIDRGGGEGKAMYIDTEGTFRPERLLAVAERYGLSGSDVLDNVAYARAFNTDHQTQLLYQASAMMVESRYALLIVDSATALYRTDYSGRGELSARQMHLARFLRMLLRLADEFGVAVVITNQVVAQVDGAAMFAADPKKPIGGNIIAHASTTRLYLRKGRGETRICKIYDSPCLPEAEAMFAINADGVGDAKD

B1: BRC4 peptide (human BRCA2 residues 1,514-1,548), biotinylated (peptide)
peptide: EKIKEPTLLGFHTASGKKVKIAKESLDKVKNLFDE
modifications: biotin on the N-terminus
B2: Lys80 RAD51 (residues 80-339) (domain or fragment)
chain: KLVPMGFTTATEFHQRRSEIIQITTGSKELDKLLQGGIETGSITEMFGEFRTGKTQICHTLAVTCQLPIDRGGGEGKAMYIDTEGTFRPERLLAVAERYGLSGSDVLDNVAYARAFNTDHQTQLLYQASAMMVESRYALLIVDSATALYRTDYSGRGELSARQMHLARFLRMLLRLADEFGVAVVITNQVVAQVDGAAMFAADPKKPIGGNIIAHASTTRLYLRKGRGETRICKIYDSPCLPEAEAMFAINADGVGDAKD

Legend:
[1] = biological target: B2; experiment: pull-down
Full-length human RAD51 = biological target: T1, Full-length human RAD51; experiment: cross-linking
SEC = biological target: the molecule itself; experiment: SEC

| Binder | binding result [1] | binding result (Full-length human RAD51) | binding result (SEC) |
| --- | --- | --- | --- |
| B1 | binds | binds |  |
| B2 |  |  | binds |

Source: PMC2096194 (Nature structural & molecular biology, 2007)
